This note sets out measurements from the supplement of paper PMC7877785.

This series in a line: self-splicing fitness, log relative to wild type (ln ratio); higher = more splicing; Tetrahymena group I intron in knt gene, E. coli kanamycin selection, DiMSum; sequences stand for … in CUCUCU…GGAGGGAAAAGUUAUCAGGCAUGCACCUGGUAGCUAGUCUUUAAACCAAUAGAUUGCAUCGGUUUAAAAGGCAAGACCGUCAAAUUGCGGGAAAGGGGUCAACAGCCGUUCAGUACCAAGUCUCAGGGGAAACUUUGAGAUGGCCUUGCAAAGGGUAUGGUAAUAAGCUGACGGACAUGGUCCUAACCACGCAGCCAAGUCCUAAGUCAACAGAUCUUCUGUUGAUAUGGAUGCAGUUCACAGACUAAAUGUCGGUCGGGGAAGAUGUAUUCUUCUCAUAAGAUAUAGUCGGACCUCUCCUUAAUGGGAGCUAGCGGAUGAAGUGAUGCAACACUGGAGCCGCUGGGAACUAAUUUGUAUGCGAAAGUAUAUUGAUUAGUUUUGGAGUACUCGUGGUCG
The method in brief: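 Six replicate transformations of E. coli BL21(DE3) with a pET-22b(+) library were grown overnight at 37°C or 30°C. The library randomised all eight P1ex-region intron nucleotides, the intron lying in the knt kanamycin-resistance gene, and plates were LB agar with or without 25 μg/mL kanamycin plus 100 μg/mL carbenicillin, 50 μM IPTG and 0.2% rhamnose. Pooled colonies were amplicon-sequenced on an Illumina HiSeq 2500, and fitness is the DiMSum error-weighted combination of wild-type-normalised replicate fold changes, kanamycin versus none.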

± gives the uncertainty stated by the source.

For AGGAAGCAAUAUUACGCCUC, the “self-splicing fitness (ln)” value was -2.44 ± 0.44 (30 °C) and -0.418 ± 0.46 (37 °C). As to AGGAAGCAAUAUUACGCCUG, the “self-splicing fitness (ln)” value is -1.15 ± 0.14 (30 °C) and 0.257 ± 0.17 (37 °C). For AGGAAGCAAUAUUACGCGAU, the “self-splicing fitness (ln)” value is -3.28 ± 0.28 (30 °C) and -2.11 ± 0.25 (37 °C). For AGGAAGCAAUAUUACGCGCU the same measures were -1.01 ± 0.13 and -0.788 ± 0.17. As for AGGAAGCAAUAUUACGCUCC, where the note is “30 °C”, the “self-splicing fitness (ln)” value is -1.87 ± 0.31.

With AGGAAGCAAUAUUACGGCAG, the “self-splicing fitness (ln)” value was -2.3 ± 0.31 (30 °C) and -0.552 ± 0.32 (37 °C). The like results for AGGAAGCAAUAUUACGGGCG were, in that order, -0.564 ± 0.11 and -0.865 ± 0.15. For AGGAAGCAAUAUUACGUAAU the same measures were -0.858 ± 0.14 and -1.42 ± 0.18. For AGGAAGCAAUAUUACGUCGG the same measures were -2.61 ± 0.15 and -1.13 ± 0.15.

As to AGGAAGCAAUAUUACGUGAG, the “self-splicing fitness (ln)” value by setting is: (30 °C) -0.821 ± 0.1; (37 °C) -1.57 ± 0.14. For AGGAAGCAAUAUUACGUGCA the same measures were -1.12 ± 0.11 and -1.32 ± 0.13.

Turning to AGGAAGCAAUAUUACGUGGG, the “self-splicing fitness (ln)” value reads like this: (30 °C) -4.36 ± 0.31; (37 °C) -3.38 ± 0.23.

Take AGGAAGCAAUAUUACGUGUA: the “self-splicing fitness (ln)” value is -2.06 ± 0.1 (30 °C) and -0.914 ± 0.085 (37 °C). For AGGAAGCAAUAUUACGUUCA the same measures were -0.532 ± 0.13 and -1.05 ± 0.21. The like results for AGGCAGCAAUAUUACGAAUA were, in that order, -2.67 ± 0.25 and -2.08 ± 0.22. For AGGCAGCAAUAUUACGAUCG the same measures were -0.369 ± 0.077 and 0.135 ± 0.093. AGGCAGCAAUAUUACGCAAG: the “self-splicing fitness (ln)” value by setting is: (30 °C) -1.22 ± 0.072; (37 °C) -0.387 ± 0.098. On to AGGCAGCAAUAUUACGCCGU, for which the “self-splicing fitness (ln)” value is -1.92 ± 0.19 (30 °C) and -0.237 ± 0.17 (37 °C). In the case of AGGCAGCAAUAUUACGCGUU, the “self-splicing fitness (ln)” value runs as follows: (30 °C) -2.29 ± 0.12; (37 °C) -0.692 ± 0.11. For AGGCAGCAAUAUUACGGAAC the same measures were -4.21 ± 0.47 and -2.29 ± 0.36. The like results for AGGCAGCAAUAUUACGGACC were, in that order, -0.728 ± 0.14 and -0.53 ± 0.18. Regarding AGGCAGCAAUAUUACGGAGG, the “self-splicing fitness (ln)” value (30 °C) is -4.29 ± 0.26 and the “self-splicing fitness (ln)” value (37 °C) was -2.66 ± 0.25. For AGGCAGCAAUAUUACGGCUA the same measures were -0.132 ± 0.069 and -0.399 ± 0.078. For AGGCAGCAAUAUUACGGGAU the same measures were -2.85 ± 0.16 and -1.39 ± 0.14.

As to AGGCAGCAAUAUUACGGGGU, the “self-splicing fitness (ln)” value by setting is: (30 °C) -3.54 ± 0.21; (37 °C) -3.25 ± 0.37. The like results for AGGCAGCAAUAUUACGGUUC were, in that order, -1.43 ± 0.14 and -1.8 ± 0.19. AGGCAGCAAUAUUACGUAGC: the “self-splicing fitness (ln)” value is -2.64 ± 0.23 (30 °C) and -1.29 ± 0.17 (37 °C). The like results for AGGCAGCAAUAUUACGUAGG were, in that order, -2.04 ± 0.083 and -1.64 ± 0.12. For AGGCAGCAAUAUUACGUCCU the same measures were -3.02 ± 0.26 and -1.29 ± 0.37. The like results for AGGCAGCAAUAUUACGUCGG were, in that order, -0.675 ± 0.08 and -0.941 ± 0.09.

On to AGGCAGCAAUAUUACGUCGU, for which the “self-splicing fitness (ln)” value is -0.986 ± 0.058 (30 °C) and -0.962 ± 0.088 (37 °C). The like results for AGGCAGCAAUAUUACGUCUG were, in that order, -2.66 ± 0.15 and -1.51 ± 0.15.

As to AGGCAGCAAUAUUACGUGAA, the “self-splicing fitness (ln)” value (30 °C) is -1.12 ± 0.07 and the “self-splicing fitness (ln)” value (37 °C) is -0.932 ± 0.11.

Take AGGGAGCAAUAUUACGAACC: the “self-splicing fitness (ln)” value reads like this: (30 °C) -1.52 ± 0.23; (37 °C) -1.48 ± 0.29.

For AGGGAGCAAUAUUACGAGCG, the “self-splicing fitness (ln)” value (30 °C) is -2.94 ± 0.47 and the “self-splicing fitness (ln)” value (37 °C) was -0.874 ± 0.43. Regarding AGGGAGCAAUAUUACGCAAU, the “self-splicing fitness (ln)” value (37 °C) was -1.7 ± 0.47.

As for AGGGAGCAAUAUUACGCAGG, the “self-splicing fitness (ln)” value (37 °C) is -0.965 ± 0.24. With AGGGAGCAAUAUUACGCCCG, the “self-splicing fitness (ln)” value (30 °C) was -3.31 ± 0.5 and the “self-splicing fitness (ln)” value (37 °C) was -0.737 ± 0.49.
